In article PMC10784492, “De novo biosynthesis of antiarrhythmic alkaloid ajmaline” (Nature Communications, 2024):

Columns and labels:
RsNNMT = molecular target: T1, RsNNMT (Rauvolfia serpentina, UniProt A0A075D6M1); assay: LC-MS/MS detection of ajmaline in coupled reaction; format: biochemical; settings: 100 μM SAM, 20 mM Tris-HCl pH 7.5, 30 °C; norajmaline formed in situ by RsAAE1/2
T1 construct: gene NNMT; N-terminal His tag, purified from E. coli

[1] = substrate: C/C=C1/[C@@H](O)N2[C@H]3C[C@@]45c6ccccc6N[C@H]4[C@@H]2C[C@@H]1C3[C@H]5OC(C)=O; assay: LC-MS/MS product quantification, Michaelis-Menten fit; format: biochemical, Rauvolfia serpentina; settings: 1 mM NADPH, 20 mM Tris-HCl pH 7.5, 30 °C, 2 min, 19,20-reduction
Excerpt: LC-MS/MS product quantification, Michaelis-Menten fit on tDHVR (RsRR4, N-terminal truncated; tRR4)

T1 sequence (A0A075D6M1 whole entry): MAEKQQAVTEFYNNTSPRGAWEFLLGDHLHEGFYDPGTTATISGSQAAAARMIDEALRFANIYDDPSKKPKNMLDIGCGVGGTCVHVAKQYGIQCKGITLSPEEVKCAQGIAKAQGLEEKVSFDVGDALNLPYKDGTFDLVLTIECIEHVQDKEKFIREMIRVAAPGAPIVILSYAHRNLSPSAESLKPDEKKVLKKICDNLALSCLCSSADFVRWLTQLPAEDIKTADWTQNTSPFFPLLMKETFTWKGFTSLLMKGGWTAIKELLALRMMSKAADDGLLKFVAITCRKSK

For CC[C@H]1[C@@H]2C[C@H]3[C@@H]4Nc5ccccc5[C@]45C[C@@H]([C@H]2[C@H]5O)N3[C@@H]1O [norajmaline], which “LC-MS/MS detection of ajmaline in coupled reaction” value (RsNNMT) is on record?
The value was “ajmaline, also confirmed with an authentic standard, was produced at the expense of norajmaline”.

B1: tDHVR (RsRR4, N-terminal truncated; tRR4) (Rauvolfia serpentina) (protein)
chain: MAGKSPEEQHPVKAYGWAATDSSGILSPFKFSRRATGDHDVRVKILYAGVCHSDLQSARNDMGCFTYPLVPGFETVGTATEVGSKVTKVKVGDKVAVGIMVGSCGKCDECVNDRECYCPEVITSYGRIDHDGTPTYGGFSSETVANEKFVFCFPEKLPMAAGAPLLNAGVSVYSAMRFYGLDKPGMHLGVVGLGGLGHLAVKFAKAFGVKVTVISTSTSKKGEAINDLGADAFLVSTDAEQMQAGSGTLDGILDTVPVVHPIEALLGLLKNHTKLVLVGATMGSFELPILPLGVGRKSVVSTIGGSTKETQEMLDFAAEHDITASVEIIPMDYVNTAMERIEKGDVRYRFVIDIGNTLTPPES
notes: N-terminally truncated 363-residue version of the 413-residue full protein (extra N-terminal 50 removed); his-tagged in pET30b(+), E. coli, Ni-NTA; OQ591882 is printed for both DHVR and RsAAE1
Which results are given for B1?
Km [1]: 32.0 µM; kcat [1]: 10.4 s⁻¹
